Data on five molecules can be found in patent CN117651715A (UNIV OXFORD INNOVATION LTD, dated 2024).

The target in experiment [1] is 人类CD1a池B蛋白 (human CD1a pool B protein, recombinant) (human) (UniProt P06126). Kind of experiment: SPR (Biacore T200), antibody captured, human CD1a titrated, 1:1 model. (In SPR one partner is held on a chip, and binding of the other changes the refractive index at the surface.)
Experiment [2] addresses T1, 人类CD1a池B蛋白 (human CD1a pool B protein, recombinant) (human, UniProt P06126 17-300, limits assumed).
T1 construct: Recombinant protein used in ELISA, Biacore and on beads; also called 人类CD1a蛋白; CD1a包被珠 (on beads)
The description is as above.

Experiment [3] concerns the target T1, 人类CD1a池B蛋白 (human CD1a pool B protein, …). As to the kind of experiment: SPR (Biacore T200), antibody captured on anti-species F(ab')2, human CD1a titrated 0-50 nM, 1:1 model.
Experiment [4] deals with 人类CD1a池B蛋白 (human CD1a pool B protein, recombinant) (human) (UniProt P06126). As to the kind of experiment: SPR (Biacore T200), antibody captured, human CD1a titrated, heterogeneous ligand model.

T1 sequence (P06126 17-300 limits assumed): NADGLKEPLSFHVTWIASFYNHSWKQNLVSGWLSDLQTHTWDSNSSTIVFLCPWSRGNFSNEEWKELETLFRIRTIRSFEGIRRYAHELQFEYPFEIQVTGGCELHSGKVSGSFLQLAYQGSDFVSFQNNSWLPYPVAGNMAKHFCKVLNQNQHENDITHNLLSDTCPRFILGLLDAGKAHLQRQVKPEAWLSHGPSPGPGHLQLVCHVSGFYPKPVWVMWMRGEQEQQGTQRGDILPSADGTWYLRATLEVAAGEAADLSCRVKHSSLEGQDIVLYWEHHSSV

B1: 111(VR12113) (antibody, from another filing, V domains shown)
VH: QSVEESGGRLVTPGTPLTLTCTASGFSLSTYAMSWVRQAPGKGLEWIGIISSSGSTYYASWAKGRFTISKTSTTVDLKITSPTTEDTATYFCARETWYWLDLWGQGTLVTVSS
VL: AVEMTQTPASVSAAVGGTVTINCQASEDIYSNLAWYQQKPGQPPKLLIYGASTLASGVPSRFKGSGSGTEYTLTISGVQCDDAATYYCQCAYDSSSYGTPFGGGTEVVVK
Take B1: in experiment [1], the Kd came to 0.0312 nM, the koff was 1.47e-08 s⁻¹ and the association rate constant (kon) stood at 321000 M⁻¹ s⁻¹.

B2: 77A(VR11851) (antibody, V domains shown)
VH: QSVEESGGRLVTPGTPLTLTCTVSGFSLSSYAMSWVRQAPGKGLEWIGIISSSGTTYYASWAKGRFTISKTSTTVDLKITSPTTEDTATYFCARVDYYSSGWGGLWGPGTLVTVSS
VL: AVEMTQTPASMSAAVGGTVTIKCQASEDIYSNLAWYQQKPGQPPKLLIYGASTLASGVPSRFKGSGSGTEYTLTISGVQCDDAATYYCQCTYDTSSYGNTFGGGTEMVVE
In the case of B2, in experiment [2], the Kd was determined as 0.24 nM and the dissociation rate constant (koff) came to 0.000113 s⁻¹. In addition, the on-rate constant (kon) in experiment [3] was 469000 M⁻¹ s⁻¹.

B3: 16(VR11834) (antibody, from another filing, V domains shown)
VH: EVQLVESGGGLVKPGGSLKLSCAASGFTFSNYAMSWVRQTPEKRLEWVAAINSNGGSAYYPDTVKDRFTISRDNAKNTLYLQMSSLRSEDTALYYCARRFYYDYGWFAYWGQGTLVTVSS
VL: DIVLTQSPASLSASVGETVTITCRASENIDSYLAWYQQKQGKSPQLLVYAATLLADGVPSRFSGSGSGTQYSLKINSLQSEDVARYYCQHYYSSPWTFGGGTKLEIK
Turning to B3, in experiment [4], the Kd came out at 0.392 nM, the ka 2 was found to be 514000 M⁻¹ s⁻¹, the kd 2 is 0.00658 s⁻¹ and the koff turned out to be 0.000729 s⁻¹. Besides, the on-rate (kon) in experiment [4] turned out to be 1.86e+06 M⁻¹ s⁻¹.

B4: 110(VR12112) (antibody, from another filing, V domains shown)
VH: QSVEESGGRLVTPGTPLTLTCTVSGFSLSSYAMIWVRQAPGKGLEWIGIINSSDNTHYATWAKGRFTISKTSTTVDLKITSPTTEDTATYFCARDPYDYGYGWYFDLWGPGTLVTVSS
VL: AQVLTQTPSPVSAAVGGTVTINCQASQSVFNNKNLAWYQQKPGQPPKLLIYKASTLASGVSSRFKGSGSGTQFALTISGVQCDDAATYYCQGEFSCSSTDCVTFGGGTEVVVK
Consider B4, for which, in experiment [1], the Kd turned out to be 1.97 nM, the koff worked out at 0.000874 s⁻¹ and the kon stood at 443000 M⁻¹ s⁻¹.

B5: 116(VR12117) (antibody, from another filing, V domains shown)
VH: QSVEESGGRLVTPGTPLTLTCTVSGFSLSNYAMSWVRQAPGKGLEWIGIIYTTGFTYYASWVKGRFTISKTSTTVDLKITSPTTEDTATYFCARGLATYVSPPTRLDLWGQGTLVTVSS
VL: AQVLTQTPSPVSAAVGGTVTINCQASQSIYNSKNLAWYQQKPGQPPKLLIYSASTLASGVPSRFKGSGSGTQFTLTISDLECDDAATYYCQGEFSCSSVDCATFGGGTEVVVK
For B5, in experiment [1], the Kd was 2.89 nM, the koff is 0.0014 s⁻¹ and the kon stood at 483000 M⁻¹ s⁻¹.

One may read the Kd as the concentration at which binding is half-saturated. The koff is a measure of how fast the partners let go of each other. For orientation: kon means the second-order rate constant of association.
